Variants at the floor of the assay were thinned out.
B1: TPR 5TU (parent)
chain: GGAUCUUCUCGAUCUAACAAAAAAGACAAAUCUGCCACAAAGCUUGAGAGCAUCUUCGGAUGCAGAGGCGGCAGCCUUCGGUGGCGCGAUAGCGCCAACGUUCUCAACUAUGACACGCAAAACGCGUGCUCCGUUGAAUGGAGUUUAUCAUG

Variants of: B1
Assay: polymerase ribozyme fitness, log enrichment relative to wild type (log ratio); higher = more active; in vitro selection for triplet polymerase activity
Outline: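 Each subunit of a heterodimeric triplet polymerase ribozyme was mutagenized into a library by PCR, transcribed, and subjected to one round of in vitro selection, run in triplicate. Libraries were annealed with a biotinylated primer, the partner subunit and triplets, incubated frozen at −7 °C, and extended constructs were gel-excised, captured on streptavidin beads and recovered by RT-PCR. Input and output libraries were sequenced on Illumina, keeping genotypes with ≥10 input reads and ≥1 read per output. Fitness is log base 2 of genotype enrichment divided by wild-type enrichment, from inverse-variance-weighted replicate averages.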

Variant	polymerase ribozyme fitness (log ratio)
A30C C79U A91G C114U G136C	≤ -4.2
U31C C93U A120G	0.174
A29U A40G	-4.2
U44A C54A U77A G92C C118A A120G G136C G140A	≤ -4.2
U135C	-1.38
C85U C149A	≤ -4.2
C32G G58A G84A A107G G124C U130G	≤ -4.2
U7G G141C	-3.41
U55G C87A C93A C99U U134A	≤ -4.2
G94U U102C	-2.06
A21U C57A A89U	-0.571
C8A U15G C95U A98G C149U A150U	-4.06
G126A G133C U146C	-2.5
A40C A47C A60C G71U A91C C93U	≤ -4.2
A40U G70C C79G A106G U135C U145G A150C	≤ -4.2
G83C A107C	≤ -4.2
C14U U55A G126A C132U	-1.73
U53G G58C C95G A122U	≤ -4.2
A21C	0.199
C36U C87A G117U	≤ -4.2
G74A C114U	-3.85
A12G G59A A73G A91G	-2.71
C57G C69A	-2.56
C32U U56A A91U A113U C118A G143C C149U	≤ -4.2

Variant	polymerase ribozyme fitness (log ratio)
U9G U31G G83C C99U U144G	≤ -4.2
C57U G83U	-1.72
C87U C108G U145G	≤ -4.2
A52C C75U C85G C95G	≤ -4.2
A21G G42A A49C A66U U82C C87U U135G U145A U148A	≤ -4.2
U53A G58A C93U C116U	-0.438
A24G C27G A28G C32A U55A U56A C76A C85A G92C U130G	≤ -4.2
A41C C93U C123U	-1.59
A24G C35U A89U G92C C125A	≤ -4.2
C69U G83U	-0.933
C8U C18G C38A C76U U78C A106U A110C C132G U135C U144C U148A C149G	≤ -4.2
A40U U55C U78G U151A	≤ -4.2
A52U C79A A110U C116U A120U C131G	≤ -4.2
A47C U61A	-3.21
A22G U56A C96G U101C G143A U148A	≤ -4.2
C87A A89U	≤ -4.2
A73G U78A C116A A138G	≤ -4.2
A47C C69A A89G G124A	-3.28
U4C C96A	-0.253
G42A U56A C95U U111G	-4
C54G G59C G83U C87U G94A U102C U148G	≤ -4.2
G59U G68A C96U	≤ -4.2
U7G A20C U56A C72G A73G C85U C93G A98G A115U	≤ -4.2
U31G U56A	0.083

Variant	polymerase ribozyme fitness (log ratio)
G83A A150C	-3.77
A52G U53A A119U G126C	0.147
C14G A24G A41U G67A G152A	≤ -4.2
C75U A107G A142G	≤ -4.2
C27U C63U C76U G81C U101G U146G	-3.39
G34U G68U C95G G133A	≤ -4.2
U45A A106G	-1.7
G42C C54A A64C U77A G83C G126A U145A	≤ -4.2
A21U G62A	0.138
G11C C35U	-2.11
C105A C125A	-3.83
C95U C96A	-1.02
C18U U44A G50A A52U G74A A91U C105G A106G C129G	≤ -4.2
G59A G62A G86U A107C	≤ -4.2
U6A A16C C27U U31G A52C C54G C118U	≤ -4.2
G62U C95A	-1.1
G50C U109G A113G A120C U130G	≤ -4.2
U31C A97G U135C U146C	-1.76
A52U U55A A115U C118A G126U A150U	≤ -4.2
A29U C114U A137G G141A U148C	≤ -4.2
A12U G84C C93U G140A	≤ -4.2
A16C A52G U55A G94U A107G	≤ -4.2
A41U G58A A147U	0.803
C14U A64G	-4.17

Variant	polymerase ribozyme fitness (log ratio)
A40C U55A A107G A142G	≤ -4.2
C105G	-0.829
U55A U101G A107G A138C G141A	≤ -4.2
A21U C36A G50U U55A C57G G62A G68U C85G C103A G128A	≤ -4.2
C103A A107U U134A	≤ -4.2
G83C G136U	-2.46
A3G U13A G42C C75U A138U	≤ -4.2
C10U A39G G42U G59A A60C C63U A91U C105U A115C A142C	≤ -4.2
A12U C54A	-1.78
A37C C51U G58C C95G C118A	-3.66
U13G G46A G83A U101A U134A U135C	≤ -4.2
A12C A113G	-2.73
G42U G59U G92U G126A U135A U144A	≤ -4.2
A41G G42A G92C U111C A113U C125G	≤ -4.2
A52G G136U A142G	-3.58
G84A A91U U102G U144A	≤ -4.2
A19C A47C C54A U56A C87A G100C G136A	≤ -4.2
G80U C114U	-2.31
C54U C79U A115G A120G A122U G141U	≤ -4.2
A91U A120U	≤ -4.2
G84U G117U	-1.61
C18A G58A G86U A119U	-2.06
C27U C85A A91U G143A	≤ -4.2
A30C C35U G59A G88U G117A	≤ -4.2

Variant	polymerase ribozyme fitness (log ratio)
A12C A37C U53C G86U A97G A113U	≤ -4.2
C85A G152C	-2.88
A41C U55A C93A	-3.32
U45A G94A	-2.81
U56G G84C C116U	-4.17
A73U G83U A122C U127A	≤ -4.2
A21U A28C U31G A47G C85U C116G C129A G133A	≤ -4.2
A60G C96U U101G G128A	-3.75
C85U U145C	-0.732
A40U G88A	-3.65
C54A A91G A120G	-3.57
A16U C85U U144C	-2.3
A20G C93U	-2.59
U13C A39C C72A C76G C99G G140U A147C	≤ -4.2
A22G C32U A120G C125U	-3.24
A19U A60U C93U C114U	-4.17
C14U A22U A41U A120C	-3.1
C76A C87U G92A	-2.16
A3C U9A G11A C35G C75A G117A U145C	≤ -4.2
G42C U148C	≤ -4.2
A12U C18U A47G C85A C93A A98C A121U	≤ -4.2
A17G C93A A106G	-1.94
C116U U145C U148C	-2.77
C54A G70A	-3.79

Variant	polymerase ribozyme fitness (log ratio)
U53A A91G G126U G140U	≤ -4.2
A41C C87G C114U	≤ -4.2
C10U A22C A60G C87U G88U	≤ -4.2
C18G A28U A29U A66G G67C C96U A106C	≤ -4.2
G84A U139G	-0.68
U56G C85G A115U	-3.43
G67U C87G U130A	≤ -4.2
A12U A20G A52U G141A	-3.17
U61A G74A C76U C87A C108U A142U	≤ -4.2
A73G G143A	-0.82
C57A G141A G152U	-3.49
G83C G128A	-3.88
U31C U55A G86C	-2.47
A30G G86A	-3.45
G68C G83U G92A U102A A137G A142G	≤ -4.2
C8U A16U A21C G67U C87U	≤ -4.2
U61A C96U	-1.32
A47G C85G U90C G124U	≤ -4.2
A17U A30U U55C C116U	-4.01
U56G G58A C63G U101G A120U	-2.56
A20C A113U U127A	≤ -4.2
U6C C38U C75G U82A A107G A120G G133A U134A	≤ -4.2
A24U G50U G59A	0.438
A39C G86U	-4.18

Variant	polymerase ribozyme fitness (log ratio)
U55G C69U	-2.89
U82A C118U	-0.0134
U31A C54A G84U C85U	-2.6
A91G G133A G141U G143U	≤ -4.2
C54G G133C	-2.55
C69U C85U U127G	-3.4
C51A C99G G141C	≤ -4.2
A39G U109C U144A	-3.59
G92A C116U	-2.29
A24U U33G U77A C87U	≤ -4.2
A26U A40C C76A G92C A121C	≤ -4.2
C10A U13G G25C G34U U61A C63U G68C U77C C79A G86A	≤ -4.2
A16U A37U A52C G112U U139A	≤ -4.2
U33A	-3.29
A26G C76A	-3.95
A19U A21U C72G A89C C96G G143A	≤ -4.2
A22C A28C A40G C43U U56G C85U	≤ -4.2
U6G A26U C93U	-2.39
A12C U90G A107G A138G	≤ -4.2
A22U A47G U56C G92C C105U	-3.13
G59A A60C C79G G81A U101G C132A U146A	≤ -4.2
U9C A24C A40C C93A C105G G141C	≤ -4.2
G48C C63A G83A G133C	-3.98
